# Results from the RNAGym collection of RNA variant scans (doi:10.1073/pnas.2313332121).
# B1: TPR t1 (parent)
# chain: GACCAAUCUGCCCUCAGAGCUCGAGAACAUCUUCGGAUGCAGAGGAGGCAGGCUUCGGUGGCGCGAUAGCGCCAACGUCCUCAACCUCCAAUGCAUCCCACCACAUGAUGAUGCCUGAAGAGCCUUGGUUUUUUG
# Variants of: B1
# Experiment: polymerase ribozyme fitness, log enrichment relative to wild type (log ratio); higher = more active; in vitro selection for triplet polymerase activity
# In short: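 Libraries of mutants in each subunit of a heterodimeric triplet polymerase ribozyme were generated by PCR and transcribed. In triplicate, each went through one in vitro selection round: annealing with biotinylated primer, partner subunit and triplets; frozen incubation at −7 °C; gel excision of extended constructs; streptavidin-bead capture; RT-PCR. Fitness, taken from Illumina sequencing of input and output libraries, is the logarithm of a genotype's enrichment over wild-type enrichment, averaged across replicates with inverse-variance weights. The logarithm is base 2, and genotypes needed ≥10 input reads and ≥1 read per output to be kept.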
row,Variant,polymerase ribozyme fitness (log ratio)
1,G47U G60U,-1.15
2,G47A U112A,-0.273
3,G47C C49G U96A,-2.52
4,A46U G71U G110A,-2.84
5,G45U C72U C88U G113U U129A,-5.57
6,G48A C79A U126C,-2.73
7,G47C G48A,-2.94
8,G47A G51U U55A C98A G113C,-7.22
9,G48A C82U U92A G110U,-6.7
10,G47C C49U,-2.12
11,G45U G120C,-0.784
12,G45U G120A,-0.795
13,G47A A121U,1.38
14,G45U G52A C115U G135U,-4.62
15,G45U U92A,-3.79
16,G47A C94A,-1.89
17,A46U G63A,-1.91
18,G47C C102U G110U U133A,-5.04
19,G47A A83U,-0.645
20,G47U C62G,-3.76
21,G47C C115A,-2.22
22,G48A C73A,-0.973
23,G47U C85U,-1.98
24,G47A G58C G113A A121C U125C U131C,-0.547

row,Variant,polymerase ribozyme fitness (log ratio)
1,A46U G93A A119G U132A,-1.15
2,G47C C62G A118G,-3.74
3,A46U C88A,-1.18
4,G47U C49U C62U,-4.79
5,G47U C53G A105G,-4.47
6,G48A C85U A105U,-2.08
7,G48A C72A,-0.519
8,G48A C72U,-0.785
9,G48A C72G,-0.135
10,G47A G110A,-1.67
11,G48A C89U C124U,0.551
12,A46U C64U A66U,-2.06
13,A46G G47A U59A,-0.512
14,G47A G113U,-2.8
15,G47A G113C,-3.08
16,G47C U55C C56A G69U C86U C123A U132A,-1.54
17,G47A U96G G120U,-1.94
18,A46U C101U,-0.308
19,A46U C101G,-3.57
20,A46C C72U A75U C123U,0.328
21,G45U U112A G128C,-2.89
22,G47C A100U,-2.4
23,G45U G60C U125G U133A,-1.59
24,G47A C72U,-0.456

row,Variant,polymerase ribozyme fitness (log ratio)
1,G47A C72A,-0.266
2,A46U G58A A83G A84C,-2.18
3,G47U U54C C70U U96C U116C U129C,-4.8
4,A46U C89U G135U,-4.54
5,A46U A66C,-2.07
6,G48A G63U C82G A91U G117C,-5.43
7,A46G G47A G52U,-2.7
8,A46U U96C C115U,-2.77
9,A46U C86A A118G,-0.968
10,G47U G61A C123A,-0.25
11,G48A G69C,-1.33
12,G48A G69U,1.02
13,G47C C102A G120U,-3.97
14,G47A G60U U133G,-0.844
15,G45U C72A U81C A84C C104U G110U U131C,-4.32
16,A46U C64G C123G C124A,-5.93
17,G47C G58A A121G G135U,0.038
18,G48A C72U C94U G127A,-2.68
19,A46U C73U C123G G127A,-1.5
20,A46G C53U G113A,-2.14
21,G45U G61U,-0.836
22,G47U C49U C62U G117U,-5.19
23,G45U C56U U81G C101G C114A,-5.46
24,A46G U54G,0.0807

row,Variant,polymerase ribozyme fitness (log ratio)
1,G48A C56U G93C C94G,-5.23
2,G45U C115A G128U,-4.73
3,A46G C64U G110U C123G,-1.18
4,A46U G52C U87G G135U,-1.01
5,G45U G69A U78A G127C,-4.73
6,A46C G120A,-0.00915
7,G45U G117C,-4.15
8,G45U C115U,-2.6
9,G47U G128U,-2.73
10,G47A G61A A84C,-1.29
11,G47U C64A U116G C124U,-6.49
12,A46C G57C,-0.329
13,A46C G57U,-0.681
14,A46G C97U,-1.05
15,G45U G61U G63C A91C A95G G110C,-4.25
16,G45U C64U U96A G110A G120C,-4.67
17,G45U C72G A91C,-2.3
18,G48A G110C,-4.33
19,G45U G71A G93A,-2.09
20,G47A G48C G52U C79U,-3.46
21,A46C G93U U106A,-1.93
22,A46C C76A,-0.908
23,A46U A121C,1.4
24,A46G C97U U130G,-2.03

row,Variant,polymerase ribozyme fitness (log ratio)
1,A46U G71U C89U C115A,-2.17
2,A46U C56G G120C,-0.234
3,G45U U96G,-1.78
4,G47U G48A G52U,-2.97
5,A46U G117C,-1.89
6,G45U C53U U130A,-1.99
7,G45U C97U U112A,-0.0204
8,A46U G71U A118G,-0.0825
9,G48A G61A U130A,-0.668
10,G47C A91C G113C,-2.97
11,G47A U54C G77A C82A G110A C123A,-3.8
12,G48A A50G G69U C76A U78C,-2.05
13,G48A G60A U78C U109A G110U,-4.9
14,A46G C98U G117C,-5.69
15,A46G C53A C56U,-0.0153
16,G48A G57A G60U G120A,-0.327
17,A46G C101A,-0.288
18,A46U C56A C115U,-2.68
19,A46U C49U G58C G60A A95C U112G U132A,-3.98
20,G47C C49A C70A U106G,-5.44
21,G47A G48A U129A,-2.41
22,G47U A66U U125G,-3.75
23,G47A G117C,-4.01
24,G45U G69U,-0.706

row,Variant,polymerase ribozyme fitness (log ratio)
1,G48A C56U C82U,-0.312
2,G47C C64U,-2.48
3,G47C A50U U81C C114U,-4.15
4,G47A A68G,-3.62
5,A46U G77C C115U G122A U130C,-4.76
6,A46C C53A C72A C86A C124G,0.771
7,G47A C88G U112G U133A,-5.65
8,A46G C73G C82U G93A C104A,-4.85
9,G45U U130G,-2.66
10,G47U A66C A95C,-4.27
11,G47A C53U U54C,-1.11
12,G47A U78A,-1.09
13,G45U U54G G77C C123G,0.415
14,G48A C64U U78C G107U,-6.15
15,G47U U54A G120A,-0.309
16,G47A G60C G69U A119U,-2.55
17,G47C C49A G63U U78C C123G C124U,-4.24
18,G47A G69A G77C C99U C114G,-6.85
19,A46C G48U C70A G113A,-3.12
20,G47A C56U,0.000278
21,G47A C56G,-1.29
22,A46U G71C C73U,-3.63
23,G48A C114A,-2.8
24,G47C C56A G110U,-5.35

row,Variant,polymerase ribozyme fitness (log ratio)
1,G45U U55C,-1.88
2,A46U U96A,-1.81
3,A46U G60C U96C C123G,0.53
4,G48A C73U C82G,-0.747
5,A46G C56A A91U,-2.49
6,A46U U106A,-1.09
7,G45U G52U,-2.65
8,G48A G63A U133G,-1.13
9,G47A C72U A121U,1.16
10,G45U C73A A95U,-1.21
11,A46U G48U U112G G135C,-3.81
12,G47C A108G U112A,-5.05
13,A46G U112A,1.3
14,G47A G127C,-2.06
15,G47U U116C,-1.74
16,A46C U87A G93C C115A U116C A119C,-3.74
17,G45U G93U G120A,-0.614
18,A46G C49U,-0.575
19,A46G C49A,0.0417
20,A46U G93U,-2.06
21,G48A C85G U106C,-1.25
22,A46U U106A C124G U129G,-0.0518
23,A46G U55G U87C,-0.104
